The source of these data is patent publication US6936431.

A value given as a limit tells only on which side of the number the result lay.

The test has as its target rat brain farnesyl:protein transferase (rat) (UniProt Q04631). The experiment in a line: cell-based or functional assay.

The substance “CVIM with glutamic acid at the X position (CVIE) (peptide)” yielded a 50% inhibition of over 40 µM. The substance “CAIL (COOH-terminal tetrapeptide of γ-Subunit of G protein)” registered a Concentration For 50% Inhibition of 100 µM. For the substance “CVIM with glutamic acid at the A2 position (CVEM) (peptide)”, the fold decline in affinity is over 50 fold. “CVIM with glycine at the A2 position (CVGM) (peptide)” came in with a 50% inhibition of 8 µM. As for “CVIM with lysine at the X position (CVIK) (peptide)”, the 50% inhibition was over 40 µM and the fold decrease in affinity against CVIM, estimated by the concentration required for 50% inhibition is over 30 fold. For the substance “CVIM with glycine at the X position (CVIG) (peptide)”, the 50% inhibition is over 40 µM.

As to “CVIM with lysine at the A2 position (CVKM) (peptide)”, the fold decline in affinity was over 50 fold and the fold decrease in affinity against CVIM, estimated by the concentration required for 50% inhibition is over 30 fold.
